# Reference: paper PMC12647621, “A de novo missense variant in MIDEAS results in increased deacetylase activity of the MiDAC HDAC complex causing a neurodevelopmental syndrome” (Nature Communications, 2025)
# B1: MIDEAS 717-887 (WT) (domain or fragment, human, UniProt Q6PJG2 717-887, looked up)
# chain: VSIEPRINVGSRFQAEIPLMRDRALAAADPHKADLVWQPWEDLESSREKQRQVEDLLTAACSSIFPGAGTNQELALHCLHESRGDILETLNKLLLKKPLRPHNHPLATYHYTGSDQWKMAERKLFNKGIAIYKKDFFLVQKLIQTKTVAQCVEFYYTYKKQVKIGRNGTLT
# B2: MIDEAS (628-887) (domain or fragment, human, UniProt Q6PJG2 628-887, looked up)
# chain: TPYQSHLRSPVRLADHPSERSFELPPYTPPPILSPVREGSGLYFNAIISTSTIPAPPPITPKSAHRTLLRTNSAEVTPPVLSVMGEATPVSIEPRINVGSRFQAEIPLMRDRALAAADPHKADLVWQPWEDLESSREKQRQVEDLLTAACSSIFPGAGTNQELALHCLHESRGDILETLNKLLLKKPLRPHNHPLATYHYTGSDQWKMAERKLFNKGIAIYKKDFFLVQKLIQTKTVAQCVEFYYTYKKQVKIGRNGTLT
# B3: MIDEAS 628-887 Y654S T655A (SAP) (domain or fragment, human, UniProt Q6PJG2 628-887, looked up)
# chain: TPYQSHLRSPVRLADHPSERSFELPPSAPPPILSPVREGSGLYFNAIISTSTIPAPPPITPKSAHRTLLRTNSAEVTPPVLSVMGEATPVSIEPRINVGSRFQAEIPLMRDRALAAADPHKADLVWQPWEDLESSREKQRQVEDLLTAACSSIFPGAGTNQELALHCLHESRGDILETLNKLLLKKPLRPHNHPLATYHYTGSDQWKMAERKLFNKGIAIYKKDFFLVQKLIQTKTVAQCVEFYYTYKKQVKIGRNGTLT
# B4: MIDEAS 628-887 Y654S (STP) (domain or fragment, human, UniProt Q6PJG2 628-887, looked up)
# chain: TPYQSHLRSPVRLADHPSERSFELPPSTPPPILSPVREGSGLYFNAIISTSTIPAPPPITPKSAHRTLLRTNSAEVTPPVLSVMGEATPVSIEPRINVGSRFQAEIPLMRDRALAAADPHKADLVWQPWEDLESSREKQRQVEDLLTAACSSIFPGAGTNQELALHCLHESRGDILETLNKLLLKKPLRPHNHPLATYHYTGSDQWKMAERKLFNKGIAIYKKDFFLVQKLIQTKTVAQCVEFYYTYKKQVKIGRNGTLT
# modifications: phosphorylation either on S654 or T655 detected on more than 41% of the peptides containing STP
# B5: MIDEAS 628-887 Y654S T655D (SDP) (domain or fragment, human, UniProt Q6PJG2 628-887, looked up)
# chain: TPYQSHLRSPVRLADHPSERSFELPPSDPPPILSPVREGSGLYFNAIISTSTIPAPPPITPKSAHRTLLRTNSAEVTPPVLSVMGEATPVSIEPRINVGSRFQAEIPLMRDRALAAADPHKADLVWQPWEDLESSREKQRQVEDLLTAACSSIFPGAGTNQELALHCLHESRGDILETLNKLLLKKPLRPHNHPLATYHYTGSDQWKMAERKLFNKGIAIYKKDFFLVQKLIQTKTVAQCVEFYYTYKKQVKIGRNGTLT
# Molecular target: HDAC1 (full-length) (UniProt Q13547 1-482)
# Sequence (Q13547 whole entry): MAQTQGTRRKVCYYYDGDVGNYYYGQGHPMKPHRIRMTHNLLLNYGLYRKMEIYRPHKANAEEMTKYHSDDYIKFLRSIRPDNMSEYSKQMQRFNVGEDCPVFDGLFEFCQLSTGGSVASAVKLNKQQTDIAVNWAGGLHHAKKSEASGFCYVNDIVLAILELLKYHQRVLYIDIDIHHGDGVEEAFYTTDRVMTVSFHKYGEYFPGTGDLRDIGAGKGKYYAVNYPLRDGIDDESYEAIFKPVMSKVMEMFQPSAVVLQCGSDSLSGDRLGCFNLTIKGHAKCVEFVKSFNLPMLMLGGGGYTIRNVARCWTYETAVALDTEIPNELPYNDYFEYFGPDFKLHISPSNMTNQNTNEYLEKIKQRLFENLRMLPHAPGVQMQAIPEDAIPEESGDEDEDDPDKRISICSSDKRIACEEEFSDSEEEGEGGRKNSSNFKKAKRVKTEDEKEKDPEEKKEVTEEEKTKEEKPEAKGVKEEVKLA
# Experiment: cell-based or functional assay
row,Binder,"initial rate of deacetylation of H3K9ac peptide (100 µM) by the MiDAC complex (50 nM HDAC1), NMR assay"
1,B1,29.7 nM/s
2,B2,6.3 nM/s
3,B3,16.6 nM/s
4,B4,20.4 nM/s
5,B5,27.3 nM/s
